This data set has as its target LdtRLas ('Candidatus Liberibacter asiaticus', UniProt A0ABN4AZS1 1-171). Briefly: competition. As to conditions: protein: recombinant; tags: N-terminal His6 removed by TEV; chain copies: 2; label: none; blunt.

These results are taken from PMC3999280.

B1: CD-3 (dsDNA)
DNA 1: TCTTCTAATATTCCTTGTATTTTAATTATGTTCGAATTTTATTTT
DNA 2: AAAATAAAATTCGAACATAATTAAAATACAAGGAATATTAGAAGA
Regarding B1, the binding result is reported as “binds”.
